# Tests used:
# [1] = target: recombinant truncated oyster intraflagellar transport protein 74-like protein (roIFT) (Crassostrea gigas (Pacific oyster)); assay: ELISA
# [2] = target: recombinant truncated oyster tumor necrosis factor (roTNF) (Crassostrea gigas (Pacific oyster)); assay: ELISA
Substance,P/N (OD450 of sample over negative control) [1],P/N (OD450 of sample over negative control) [2]
"P protein of HuNoV GI.1, recombinant, purified (domain or fragment)",6.97,5.88
"P protein of HuNoV GII.4, recombinant, purified (domain or fragment)",3.95,5.33

# — paper PMC10058639
